From patent US7179646B2, “Gene expression using T cell factor responsive element” (Innovata PLC, priority 2000, dated 2007)

B1: 5merTcf-SV40: Artificial promoter of 5 active Tcf sites upstream of the basal SV40 promoter; renamed CTP1 (nucleic acid)
antisense: TTGAGATGCAGATCGCAGATCTGATAAAGGTGCATTTAGAGATCAAAGGTAGGACTCTTGATCAAAGGACTGAATTCCTTGATCAAAGGTGCATTTAGAGATCAAAGGTAGGACTCTTTGATCAAAGGGACTAGTAAGCTTGCTAGCACGCGTAAGAGCTCGGTACC
B2: TcfC-E1BTATA: Luciferase reporter with TcfC arrangement of 5 Tcf sites and E1BTATA box (nucleic acid)
antisense: TACCAACAGTACCGGAATGCCAAGCTAGCTTTTTAGCTTCCTTAGCTCCTGAAAATCTCGCCAAGCTGATGAATTCGAGCTGGCGCATTATATACCCTCTGATAAAGGTGCATTTAGAGATCAAAGGTATGATCAAAGGACTTGATCAAAGGTGAGATCAAAGGTATTGATCAAAGGACTAGAGCTTACTTAGATCGCAGATCTCGAGCCCGGGCTAGCACGCGTAAGAGCTCGGTACCTATCG

Assays:
[1] = tested on: primary human hepatocytes, dermal fibroblasts and endothelial cells; assay: Beta-galactosidase expression in infected cultured primary human cells; assay type: cell-based; conditions: 48 h after infection
Procedure: Primary human dermal fibroblasts were isolated from punch biopsy samples from healthy volunteers and maintained as above. HUVEC cells were obtained from Promocell (Heidelberg, Germany) and maintained in Endothelial Growth Medium plus Supplement Mix (Promocell). Primary hepatocytes were maintained in Williams medium with added antibiotics, glutamine, insulin and hydrocortisone.
After washing cells with PBS, cells were fixed in 0.05% glutaraldehyde in PBS for 10 min at RT. Following further washing in PBS, cells were incubated cells the following solution and incubated at 37° C. X-gal solution: 400 μl 500 mM K4Fe(CN)6, 400 μl 500 mM K3Fe(CN)6, 100 μl 2 mM MgCl2, 250 μl 40 mg/ml X-Gal in DMF and 8.85 ml PBS.
(§1) Expression of β-galactosidase was measured for quantitative graphical presentation by means of the Galacto-Light system (Tropix Inc, Applied Biosystems, Foster City, Calif., U.S.A.)

HepG2 cells = assay: Transient transfection luciferase reporter assay in HepG2; assay type: cell-based, human
Procedure: (§2) HepG2, SW480 and HeLa were seeded the day before transfection at densities of 2.5×10^5, 1.5×10^5 and 6.0×10^4 cells per 6-well respectively. The next day, a mixture of CL22 peptide ([…] (SEQ ID NO:15) (described in International Patent Application WO 98/35984)) and plasmid DNA (2:1 ratio, μg:μg) was prepared in a final volume of 100 μl in HBS (10 mM Hepes pH 7.4, 150 mM NaCl; Sigma) and incubated at RT for 30–45 min before addition of 0.9 ml of “RAC” solution (0.1% human albumin (BPL, UK), 120 μM chloroquine (Sigma) in RPMI medium (Sigma). The transfection solution was then added to cells after washing them once with PBS and incubated with the cells for 4–5 hours before replacement with 2 ml of fresh complete medium. After two days, cells were washed once with PBS and then incubated for 10 min at RT in 200 μl lysis buffer (10 mM sodium phosphate pH 7.8, 8 mM MgCl2, 1 mM EDTA pH 8.0, 1% Triton X-100 and 15% glycerol). After centrifugation, an aliquot of the supernatant was assayed for luciferase activity with luciferase assay buffer (0.1 mM luciferin, 0.44 mM ATP in lysis buffer) using a luminometer (Lumat LB 9501, Berthold, Germany). Activity was normalised using the protein content of each sample (BCA, Pierce).

293 and PerC6 cells = assay: LacZ expression in adenovirus helper cell lines; assay type: cell-based, human
Procedure: as §1

SW480 cells = assay: Transient transfection luciferase reporter assay in SW480; assay type: cell-based, human
Procedure: as §2

[2] = tested on: freshly excised colorectal cancer tissue and attached liver tissue; assay: Ex vivo transduction of freshly excised colorectal tumour samples, X-gal staining; design: species or system human
Procedure: Freshly excised tumour tissue was extensively washed (at least 10 minutes duration) under aseptic conditions with 20 ml of Earl's MEM containing 10% FCS, 150 μg/ml penicillin, 250 μg/ml streptomycin, 10 μg/ml tetracycline, 100 μg/ml amikacin, 150 µg/ml chloramphenicol and 100 μg/ml gentamycin and stored at 4° C. overnight in medium containing 10% FCS. After removal of fat and grossly and suspected necrotic tissue, 2–3 mm^3 samples were prepared and placed individually into wells of a 96-well plate. Samples (in quadruplicate) were incubated in 150 μl of serum-free medium containing, 1.0×10^10 virus particles or in medium alone for 4 h in a CO2 incubator. The medium was then replaced with EMEM containing 10% FCS and the samples incubated for a further 44 h to allow gene expression to proceed. β-galactosidase expression was visualised after fixation of the tumour samples in 2% paraformaldehyde/PBS for 2 h at 4° C. and washing with PBS by overnight incubation in X-gal staining solution at 37° C.

HeLa cells = assay: Transient transfection luciferase reporter assay in HeLa; assay type: cell-based, human
Procedure: as §2

Molecule | beta-galactosidase expression [1] | activity relative to CMV enhancer/promoter (HepG2 cells) | induction ratio (HepG2 cells; relative to SV40 promoter set as 1) | LacZ expression compared to CMV promoter (293 and PerC6 cells; 293 and PerC6, MOI 100, 30 h post-infection) | fold more active in PerC6 than in 293 cells (293 and PerC6 cells; PerC6 vs 293) | activity relative to CMV enhancer/promoter (SW480 cells; SW480) | luciferase reporter activity in SW480 (SW480 cells; SW480, Example 6) | induction ratio (SW480 cells; SW480, relative to SV40 promoter set as 1) | inducibility in SW480 compared to HeLa (SW480 cells; SW480 vs HeLa) | colorectal metastases permissive for high-level expression ([2]; 5 metastases examined) | primaries weakly or non-permissive for promoter activity ([2]; of 10 primaries) | luciferase reporter activity in HeLa (HeLa cells; Example 6) | luciferase activity compared to SV40 promoter alone (HeLa cells; beta-catenin not deregulated) | level of reporter gene expression among Tcf-E1BTATA arrangements (SW480 cells; SW480, E1BTATA combinations)
B1 | very low levels of beta-galactosidase expression | even more active than CMV | 18 | significantly lower than that driven by the CMV promoter | approximately 3 fold | about 80% | highly active in SW480, here comparable to CMV | 44.2 | 30–60 fold | all 5 colorectal metastases examined were permissive | 3 | shows a background activity in HeLa cells | not more active than the SV40 promoter alone | –
B2 | – | – | – | – | – | – | – | – | – | – | – | – | – | highest level of reporter gene expression
